# Source: patent US8748572B2, “RNase a peptides, fragments and uses thereof” (priority 2006, dated 2014)
# “Also recorded” adds a separate entry of the source. Marks after values point to notes of the source that are not given here.
# B1: rRNase A-1: recombinant carboxy-terminal FLAG-tagged Gallus gallus leukocyte RNase A-1, SEQ ID NO: 2, GenBank DQ395275 (protein, listed as Gallus gallus)
# chain: VPTYQDFLRTHVDFPKTSFPNIAAYCNVMMVRRGINVHGRCKSLNTFVHTDPRNLNTLCINQPNRALRTTQQQLPVTDCKLIRSHPTCSYTGNQFNHRVRVGCWGGLPVHLDGTFP
# modifications: C-terminal FLAG tag
# B2: rRNase A-2: recombinant carboxy-terminal FLAG-tagged Gallus gallus leukocyte RNase A-2, SEQ ID NO: 4, GenBank DQ395276 (protein, listed as Gallus gallus)
# chain: VPTYQDFLYKHMDFPKTSFPSNAAYCNVMMVRRGMTAHGRCKSFNTFVHTDPRNLNTLCINQPDQALRTTRRHFRITDCKLIRSHPTCRYSGNQFNRRVRVGCRGGLPVHLDGTSP
# modifications: C-terminal FLAG tag
# Assays:
# yeast tRNA = assay: ribonuclease assay with yeast tRNA substrate; assay type: biochemical; conditions: for Optimum pH for RNase activity: 50 pmol rRNase, 40 mM sodium phosphate buffers pH 5.5 to 8.0; for Km / kcat: 40 mM sodium phosphate buffer
# Description: FIGS. 4 A-D are graphs showing the ribonucleolytic activity of recombinant leukocyte RNases. (A) is a graph showing the optimum pH for RNase activity. Enzymatic activity was determined with 50 pmol rRNase A-1 (open squares) and rRNase A-2 (closed circles) that was incubated with 250 μg/ml yeast tRNA in 40 mM sodium phosphate buffer at the pHs indicated. Measurements of A260 per time were converted to pmol/s as described in […] and Methods. (B) is a graph showing the initial rates for RNase activity. Enzymatic activity was determined as described in (A) with 40 mM sodium phosphate buffer, pH 7.0. (C) is a graph showing the substrate preference for RNase activity. 50 pmol rRNase A-1 (left panel) and rRNase A-2 (right panel) proteins were incubated with 250 μg/ml of poly U (open squares), poly C (closed circles), poly A (open diamonds), poly G (open triangles) and poly I (open circles) in 40 mM sodium phosphate buffers, pH 7.0. A260 was measured after precipitation of undigested RNA at each of the time points indicated. (D) is two panels of graphs showing interaction of RNase with human placental RNase inhibitor (hPR1). RNase activity was measured with […] of bovine pancreatic RNase (left) or […] rRNase A-1 and rRNase A-2 (right) with 250 μg/ml of yeast tRNA as substrate with (+) or without (−) 200 U human placental RNase inhibitor (hPR1) in 40 mM sodium phosphate buffer, pH 7.0. The hPR1 was added to the RNases in buffer 5 min prior to initiation of RNase assay by addition of substrate. *p<0.01.
# Next, the enzymatic activity of the two recombinant leukocyte RNases was characterized. Optimum pH was determined as 7.0 with 50 pmol rRNase A-1 or A-2, with 200 μg yeast tRNA substrate in 40 mM sodium phosphate buffers ranging from pH 5.5 to 8.0, as shown in FIG. 4A. […] Enzymatic activity was measured using 10 pmol rRNase A-1 or rRNase in 40 mM sodium phosphate buffer, pH 7.0. Conversion from A260 to pmol ribonucleotide product was carried out as described in reference 29 and in the Methods.
# The ribonuclease (RNase) assay with yeast tRNA substrate has been described in detail elsewhere. In this study, 10 μL of a 20 mg/ml solution of yeast tRNA, polyuridylic acid (poly U), polyadenylic acid (poly A), polycytidylic acid (poly C), polyguanylic acid (poly G), or polyinosinic acid (poly I) (Sigma-Aldrich) were added to 800 μl of 40 mM sodium phosphate buffer, pH 7.0 containing recombinant FLAG-tagged chicken RNase protein. In experiments in which the pH optimum was to be determined, 40 mM sodium phosphate buffers of pH 5.0, 5.5, 6.0, 6.5, […] or 8.0 were used instead of the buffer of pH 7.0. In some experiments, 200 U human placental RNase inhibitor (Boehringer Mannheim) were added prior to the addition of the tRNA substrate. Conversion of units A260 per unit time to pmol/s were performed as described in [29], based on the following conversion factors: the average molecular weight of a molecule of tRNA is 28,100 (75-90 ribonucleotides/tRNA molecule×341 MW per ribonucleotide) with an A260 of 1.0 corresponding to 40 μg of RNA.
# chicken aortic rings = assay: chick aortic ring assay (angiogenesis); assay type: cell-based; conditions: for blood vessel formation in aortic rings (in words) / Angiogenesis Scores: 2 μM recombinant RNase; for blood vessel formation in aortic rings (in words): ex vivo; for Angiogenesis Scores: 24 h, Mean ± SEM, 6 to 8 rings; for % change of angiogenesis score vs control: 2 μM, ([rRNase − control]×100/[control])
# From the text: The angiogenic activity of a particular RNase A polypeptide or fragment can be assessed by known protocols, such as that described in the methods section and the following described protocol, herein referred to as “a standard angiogenesis assay.” For example, the chick aortic ring sprouting assay, described in the art, can be a standard angiogenesis assay according to the invention. In the assay, aortic arches are dissected from 13-day-old chicken embryos, cleaned free of unwanted tissue and cut into 0.8 mm slices. Each ring is transferred into center of a well of 96-well plate, and ice-cold Matrigel (Becton Dickinson, Bedford, Mass.) is added immediately to imbed the ring. After solidification of the Matrigel, human endothelial-SFM basal growth medium (Invitrogen) is added to each well. After addition of recombinant leukocyte RNase A-1 or RNase A-2 or control preparation, the rings are incubated at 37° C. for 24 h. Vessels sprouted from rings are observed under microscopy, and assessed by blinded observers.
# Both chicken leukocyte RNases are structurally related to the mammalian angiogenin lineage, as discussed above and illustrated in FIG. 1. However, none of the non-mammalian ribonucleases evaluated thus far have been reported to have angiogenic activity. Here, the potential angiogenic activity of recombinant leukocyte RNases A-1 and A-2 was evaluated using the chick aortic ring assay as described in the literature. Briefly, aortic rings prepared from 13 day-old chick embryos were incubated with 2 μM recombinant leukocyte RNases (rRNases).
# Table 1 details the results of the chick aortic ring assay. Specifically, vessels sprouted from aortic rings treated with 100 μl of human endothelial-SFM basal growth medium and 2 μM recombinant leukocyte RNase were observed under microscopy and assessed by blinded observers, according previously published methods. Each of the groups (named Exp. 1 and Exp. 2) were composed of 6 to 8 rings. Percent (%) change is a value that represents ([rRNase A-1 or A-2−control]×100/[control]). *p<0.05, as determined using the Student's t-test.
# The chick aortic ring sprouting assay was performed as described previously with minor modifications. Aortic arches were dissected from 13-day-old chicken embryos, cleaned free of unwanted tissue and cut into 0.8 mm slices. Each ring was transferred into center of a well of 96-well plate. Ice-cold 10 μl of Matrigel (Becton Dickinson, Bedford, Mass.) were added immediately to imbed the ring. After the Matrigel was solidified, 100 μl of human endothelial-SFM basal growth medium (Invitrogen) was added to each well. After addition of recombinant leukocyte RNase A-1 or RNase A-2 or control preparation, the rings were incubated at 37° C. for 24 h. Vessels sprouted from rings were observed under microscopy, and assessed by blinded observers. Each groups composed of 6 to 8 rings.
Molecule,Optimum pH for RNase activity (yeast tRNA),Km (yeast tRNA; pH 7.0),kcat (yeast tRNA; pH 7.0),blood vessel formation in aortic rings (in words) (chicken aortic rings),Angiogenesis Scores (chicken aortic rings; Exp. 1),% change of angiogenesis score vs control (chicken aortic rings; Exp. 1),Angiogenesis Scores (chicken aortic rings; Exp. 2),% change of angiogenesis score vs control (chicken aortic rings; Exp. 2),"Km, times lower than that for RNase A-1 (yeast tRNA; pH 7.0)","kcat, times lower than that for RNase A-1 (yeast tRNA; pH 7.0)"
B1,7.0,17.2 µM,2.61 s⁻¹,comparable to that in the control,0.38 ± 0.13 Arbitary Units,+2.7%,0.41 ± 0.06 Arbitary Units,+24%,,
B2,7.0,0.5 µM,0.056 s⁻¹,Prominent blood vessel formation; also recorded: has angiogenic activity ex vivo,0.68 ± 0.26* Arbitary Units,+84%,0.60 ± 0.14* Arbitary Units,+82%,34 times,50 times
